This note sets out measurements from publication PMC5398727, “GP73 represses host innate immune response to promote virus replication by facilitating MAVS and TRAF6 degradation” (PLoS Pathogens, 2017).

The target in the assay is T1, GST-GP73 (aa36-401) (human, UniProt Q8NBJ4 36-401).
T1 construct: also called recombinant GST-GP73; GST-fused GP73; source: E. coli BL21, purified (glutathione Sepharose 4B)
T1 sequence (looked up): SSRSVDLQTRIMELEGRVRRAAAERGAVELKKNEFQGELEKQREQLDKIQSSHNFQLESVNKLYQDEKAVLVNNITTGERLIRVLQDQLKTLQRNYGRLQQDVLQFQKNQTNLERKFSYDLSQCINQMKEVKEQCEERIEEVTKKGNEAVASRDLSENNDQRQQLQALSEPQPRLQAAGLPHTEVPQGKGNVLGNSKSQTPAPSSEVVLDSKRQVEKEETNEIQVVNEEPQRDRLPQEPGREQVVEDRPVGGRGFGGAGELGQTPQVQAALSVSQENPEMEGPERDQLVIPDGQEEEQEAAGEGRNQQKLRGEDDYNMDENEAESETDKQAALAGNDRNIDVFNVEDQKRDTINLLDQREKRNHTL
Kind of assay: pull-down; purified MBP, MBP-M11 or MBP-T6CC (20 μg) with 10 μg GST or 20 μg GST-GP73 overnight at 4°C; WB (S4A Fig). The note with it: both partners purified.

B1: MBP-M11 (domain or fragment, UniProt Q7Z434 1-90, looked up)
chain: MPFAEDKTYKYICRNFSNFCNVDVVEILPYLPCLTARDQDRLRATCTLSGNRDTLWHLFNTLQRRPGWVEYFIAALRGCELVDLADEVASISASTSLGMGPCHGPEENEYKSEGTFGIHVAENPSIQLLEGNPGPPADPDGGPRPQADRKFQEREVPCHRPSPGALWLQVAVTGVLVVTLLVVLYRRRLH
notes: also called MBP-fused M11; source: E. coli BL21, purified (amylose resin)
Consider B1, for which the binding result was “binds”.
